From patent US20180244795A1

Tests used:
[1] = target: hCD37-Fc-LAGA (amino acids 107 to 235 of human CD37 fused to human IgG1 Fc-domain) (human); assay: ELISA, native hCD37-Fc-LAGA coated on the plate, antibody at 10 µg/mL
[2] = target: hCD37-Fc-LAGA (amino acids 107 to 235 of human CD37 fused to human IgG1 Fc-domain) (human); assay: ELISA, denatured hCD37-Fc-LAGA coated on the plate, antibody at 10 µg/mL
[3] = target: hCD37-ECD-Fc (amino acids 107 to 235 of human CD37 fused to murine IgG2a Fc-domain) (human); assay: ELISA, denatured hCD37-ECD-Fc coated on the plate, antibody at 5 µg/mL
[4] = target: hCD37-Fc-LAGA (amino acids 107 to 235 of human CD37 fused to human IgG1 Fc-domain) (human); assay: ELISA, native hCD37-Fc-LAGA coated on the plate, antibody at 10 µg/mL; remark: listed apart in the source
[5] = target: hCD37-LEL (Large Extracellular Loop; amino acids 107 to 242 of human CD37 with a 6xHis-tag) (human); assay: ELISA, denatured hCD37-LEL coated on the plate, antibody at 10 µg/mL
[6] = target: hCD37-LEL (Large Extracellular Loop; amino acids 107 to 242 of human CD37 with a 6xHis-tag) (human); assay: ELISA, native hCD37-LEL coated on the plate, antibody at 5 µg/mL
[7] = target: hCD37-LEL (Large Extracellular Loop; amino acids 107 to 242 of human CD37 with a 6xHis-tag) (human); assay: ELISA, native hCD37-LEL coated on the plate, antibody at 2.5 µg/mL
[8] = target: hCD37-ECD-Fc (amino acids 107 to 235 of human CD37 fused to murine IgG2a Fc-domain) (human); assay: ELISA, native hCD37-ECD-Fc coated on the plate, antibody at 5 µg/mL
[9] = target: hCD37-Fc-LAGA (amino acids 107 to 235 of human CD37 fused to human IgG1 Fc-domain) (human); assay: ELISA, native hCD37-Fc-LAGA coated on the plate, antibody at 2.5 µg/mL
[10] = target: hCD37-Fc-LAGA (amino acids 107 to 235 of human CD37 fused to human IgG1 Fc-domain) (human); assay: ELISA, denatured hCD37-Fc-LAGA coated on the plate, antibody at 2.5 µg/mL
[11] = target: hCD37-Fc-LAGA (amino acids 107 to 235 of human CD37 fused to human IgG1 Fc-domain) (human); assay: ELISA, denatured-reduced hCD37-Fc-LAGA coated on the plate, antibody at 10 µg/mL
[12] = target: hCD37-Fc-LAGA (amino acids 107 to 235 of human CD37 fused to human IgG1 Fc-domain) (human); assay: ELISA, denatured-reduced hCD37-Fc-LAGA coated on the plate, antibody at 5 µg/mL
[13] = target: hCD37-ECD-Fc (amino acids 107 to 235 of human CD37 fused to murine IgG2a Fc-domain) (human); assay: ELISA, native hCD37-ECD-Fc coated on the plate, antibody at 10 µg/mL
[14] = target: hCD37-Fc-LAGA (amino acids 107 to 235 of human CD37 fused to human IgG1 Fc-domain) (human); assay: ELISA, native hCD37-Fc-LAGA coated on the plate, purified antibody titrated (left panel)
[15] = target: hCD37-LEL (Large Extracellular Loop; amino acids 107 to 242 of human CD37 with a 6xHis-tag) (human); assay: ELISA, native hCD37-LEL coated on the plate, antibody at 10 µg/mL
[16] = target: hCD37-Fc-LAGA (amino acids 107 to 235 of human CD37 fused to human IgG1 Fc-domain) (human); assay: ELISA, denatured-reduced hCD37-Fc-LAGA coated on the plate, antibody at 2.5 µg/mL
[17] = target: hCD37-LEL (Large Extracellular Loop; amino acids 107 to 242 of human CD37 with a 6xHis-tag) (human); assay: ELISA, native hCD37-LEL coated on the plate, antibody at 5 µg/mL; remark: listed apart in the source
[18] = target: hCD37-Fc-LAGA (amino acids 107 to 235 of human CD37 fused to human IgG1 Fc-domain) (human); assay: ELISA, native hCD37-Fc-LAGA coated on the plate, antibody at 5 µg/mL
[19] = target: hCD37-ECD-Fc (amino acids 107 to 235 of human CD37 fused to murine IgG2a Fc-domain) (human); assay: ELISA, native hCD37-ECD-Fc coated on the plate, antibody at 2.5 µg/mL
[20] = target: hCD37-LEL (Large Extracellular Loop; amino acids 107 to 242 of human CD37 with a 6xHis-tag) (human); assay: ELISA, native hCD37-LEL coated on the plate, antibody at 10 µg/mL; remark: listed apart in the source
[21] = target: hCD37-LEL (Large Extracellular Loop; amino acids 107 to 242 of human CD37 with a 6xHis-tag) (human); assay: ELISA, denatured hCD37-LEL coated on the plate, purified antibody titrated
[22] = target: hCD37-ECD-Fc (amino acids 107 to 235 of human CD37 fused to murine IgG2a Fc-domain) (human); assay: ELISA, denatured hCD37-ECD-Fc coated on the plate, antibody at 2.5 µg/mL
[23] = target: hCD37-LEL (Large Extracellular Loop; amino acids 107 to 242 of human CD37 with a 6xHis-tag) (human); assay: ELISA, denatured hCD37-LEL coated on the plate, antibody at 2.5 µg/mL
[24] = target: hCD37-LEL (Large Extracellular Loop; amino acids 107 to 242 of human CD37 with a 6xHis-tag) (human); assay: ELISA, native hCD37-LEL coated on the plate, antibody at 2.5 µg/mL; remark: listed apart in the source
[25] = target: hCD37-LEL (Large Extracellular Loop; amino acids 107 to 242 of human CD37 with a 6xHis-tag) (human); assay: ELISA, denatured hCD37-LEL coated on the plate, antibody at 5 µg/mL
[26] = target: hCD37-Fc-LAGA (amino acids 107 to 235 of human CD37 fused to human IgG1 Fc-domain) (human); assay: ELISA, native hCD37-Fc-LAGA coated on the plate, antibody at 5 µg/mL; remark: listed apart in the source
[27] = target: hCD37-LEL (Large Extracellular Loop; amino acids 107 to 242 of human CD37 with a 6xHis-tag) (human); assay: ELISA, denatured-reduced hCD37-LEL coated on the plate, antibody at 10 µg/mL
[28] = target: hCD37-Fc-LAGA (amino acids 107 to 235 of human CD37 fused to human IgG1 Fc-domain) (human); assay: ELISA, denatured hCD37-Fc-LAGA coated on the plate, antibody at 5 µg/mL
[29] = target: hCD37-LEL (Large Extracellular Loop; amino acids 107 to 242 of human CD37 with a 6xHis-tag) (human); assay: ELISA, denatured-reduced hCD37-LEL coated on the plate, antibody at 5 µg/mL
[30] = target: hCD37-LEL (Large Extracellular Loop; amino acids 107 to 242 of human CD37 with a 6xHis-tag) (human); assay: ELISA, denatured-reduced hCD37-LEL coated on the plate, antibody at 2.5 µg/mL
[31] = target: hCD37-ECD-Fc (amino acids 107 to 235 of human CD37 fused to murine IgG2a Fc-domain) (human); assay: ELISA, denatured hCD37-ECD-Fc coated on the plate, antibody at 10 µg/mL
[32] = target: hCD37-Fc-LAGA (amino acids 107 to 235 of human CD37 fused to human IgG1 Fc-domain) (human); assay: ELISA, native hCD37-Fc-LAGA coated on the plate, antibody at 2.5 µg/mL; remark: listed apart in the source

Sequence of hCD37-ECD-Fc (amino acids 107 to 235 of human CD37 fused to murine IgG2a Fc-domain) (human) (chain, as listed by the source limits assumed): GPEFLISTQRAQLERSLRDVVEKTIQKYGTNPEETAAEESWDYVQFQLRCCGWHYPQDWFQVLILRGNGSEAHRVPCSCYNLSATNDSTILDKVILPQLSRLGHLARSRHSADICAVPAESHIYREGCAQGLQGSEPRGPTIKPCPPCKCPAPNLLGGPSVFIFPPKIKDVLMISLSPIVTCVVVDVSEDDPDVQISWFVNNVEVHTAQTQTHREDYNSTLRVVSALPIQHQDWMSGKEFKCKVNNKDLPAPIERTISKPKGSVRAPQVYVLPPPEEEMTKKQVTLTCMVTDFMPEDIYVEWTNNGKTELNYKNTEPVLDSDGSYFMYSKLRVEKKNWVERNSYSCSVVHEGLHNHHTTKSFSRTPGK
Sequence of hCD37-Fc-LAGA (amino acids 107 to 235 of human CD37 fused to human IgG1 Fc-domain) (human) (chain, as listed by the source limits assumed): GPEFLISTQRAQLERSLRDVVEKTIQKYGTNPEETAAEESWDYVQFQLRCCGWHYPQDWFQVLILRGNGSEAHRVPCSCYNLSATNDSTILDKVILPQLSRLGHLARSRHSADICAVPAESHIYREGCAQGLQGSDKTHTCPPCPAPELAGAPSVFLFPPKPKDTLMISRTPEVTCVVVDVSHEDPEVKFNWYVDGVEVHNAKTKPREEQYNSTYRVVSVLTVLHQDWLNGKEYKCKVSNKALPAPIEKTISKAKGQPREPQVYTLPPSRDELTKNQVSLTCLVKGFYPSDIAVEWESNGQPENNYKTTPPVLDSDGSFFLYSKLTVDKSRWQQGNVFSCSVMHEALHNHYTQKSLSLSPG
Sequence of hCD37-LEL (Large Extracellular Loop; amino acids 107 to 242 of human CD37 with a 6xHis-tag) (human) (chain, as listed by the source limits assumed): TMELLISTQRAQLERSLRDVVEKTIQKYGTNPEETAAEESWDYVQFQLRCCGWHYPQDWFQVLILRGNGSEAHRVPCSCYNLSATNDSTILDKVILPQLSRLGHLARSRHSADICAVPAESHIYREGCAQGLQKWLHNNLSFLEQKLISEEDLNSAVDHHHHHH

NCL-CD37 mouse monoclonal anti-CD37 antibody (clone CT1, Leica Biosystems)
ELISA absorbance at 450 nm [1]: 2.8 | ELISA absorbance at 450 nm [2]: 3.2 | ELISA absorbance at 450 nm [3]: 3.1 | ELISA absorbance at 450 nm [4]: 2.9 | ELISA absorbance at 450 nm [5]: 2.8 | ELISA absorbance at 450 nm [6]: 3 | ELISA absorbance at 450 nm [7]: 2 | ELISA absorbance at 450 nm [8]: 2.4 | ELISA absorbance at 450 nm [9]: 2.4 | ELISA absorbance at 450 nm [10]: 3.1 | ELISA absorbance at 450 nm [11]: 3.3 | ELISA absorbance at 450 nm [12]: 3.2 | ELISA absorbance at 450 nm [13]: 2.7 | EC50 (read off the curve) [14]: 3 nM | ELISA absorbance at 450 nm [15]: 3 | ELISA absorbance at 450 nm [16]: 3.2 | ELISA absorbance at 450 nm [17]: 2.4 | ELISA absorbance at 450 nm [18]: 2.5 | ELISA absorbance at 450 nm [19]: 2.2 | ELISA absorbance at 450 nm [20]: 2.7 | EC50 (read off the curve) [21]: 0.1 nM | ELISA absorbance at 450 nm [22]: 3.1 | ELISA absorbance at 450 nm [23]: 1.8 | ELISA absorbance at 450 nm [24]: 3 | ELISA absorbance at 450 nm [25]: 2 | ELISA absorbance at 450 nm [26]: 2.6 | ELISA absorbance at 450 nm [27]: 3.3 | ELISA absorbance at 450 nm [28]: 3.1 | ELISA absorbance at 450 nm [29]: 3.2 | ELISA absorbance at 450 nm [30]: 3.2 | ELISA absorbance at 450 nm [31]: 3.1 | ELISA absorbance at 450 nm [32]: 2.1
